From patent US5731183 come the findings set out here.

Test [1] addresses dimethylcasein.
In test [2] the target is dimethylcasein. The source holds these as a separate data set.
Test [3] deals with dimethylcasein. The source holds these as a separate data set.

With “Bacillus subtilis AJ12866-derived transglutaminase (enzyme)”, the Relative Activity (14C-putrescine bonded to dimethylcasein, 37° C., 30 minutes) (relative activity) with dimethylcasein [1] was 10200.
“fused protein of an 11-residue lacZ-derived peptide and the Bacillus-derived TG, expressed from pBSTG75-11 in Escherichia coli JM109 (enzyme)”: in the test with dimethylcasein [2], the TG activity (dpm) (14C-putrescine caught by dimethylcasein) amounted to 496 dpm.

B1: Bacillus subtilis AJ1307-derived transglutaminase (enzyme)
chain: MIIVSGQLLRPQDIENWQIDQNLNPLLKEMIETPVQFDYHSIAELMFELKLRMNIVAAAKTLHKSGAKFATFLKTYGNTTYWRVSPEGALELKYRMPPSKAIRDIAENGPFYAFECATAIVIIYYLALIDTIGEDKFNASFDRIILYDWHYEKLPIYTETGHHFFLGDCLYFKNPEFDPQKAQWRGENVILLGEDKYFAHGLGILNGKQIIDKLNSFRKKGALQSAYLLSQATRLDVPSLFR
As to B1, the relative TG activity (14C-putrescine bonded to dimethylcasein, 37° C., pH 7.5) (dpm/mg/30 min) with dimethylcasein [3] amounted to 25000.
